Laboratory results as given in the RNAGym collection of RNA variant scans (doi:10.1101/gr.219683.116).

B1: mRNA-splicing (parent)
chain: AGUUGCUGCUGGGAGCUCCAGCACAGUGAAAUGGACAGAAGGGCAGAGCAA

Variants of: B1
Assay: exon inclusion enrichment index; higher = more inclusion; WT1 exon 5 minigene, HEK293

| Variant | exon inclusion enrichment index |
| --- | --- |
| G5C C6U G8C C9U U10C G15C C16G | 2.09 |
| G5C C6U G8C C9U U10C A25G G26C | 3.56 |
| G5C C6U G8C C9U U10C A25G G26U | 2.71 |
| G5C C6U G8C C9U U10C A25G G26A | 4.14 |
| G5C C6U G8C C9U U10C A31U | 1.74 |
| G5C C6U G8C C9U U10C A31C | 2.29 |
| G5C C6U G8C C9U U10C A31G | 2.47 |
| G5C C6U G8C C9U U10C C18U C19A | 0.179 |
| G5C C6U G8C C9U U10C C18U C19U | 0.0402 |
| G5C C6U G8C C9U U10C C18U C19G | 0.675 |
| G5C C6U G8C C9U U10C A40C G41A | 0.768 |
| G5C C6U G8C C9U U10C A40C G41U | 0.895 |
| G5C C6U G8C C9U U10C A40C G41C | 2.97 |
| G5C C6U G8C C9U U10C G38U | 0.577 |
| G5C C6U G8C C9U U10C G38C | 1.28 |
| G5C C6U G8C C9U U10C G38A | 1.01 |
| G5C C6U G8C C9U U10C G38C A39G | 1.77 |
| G5C C6U G8C C9U U10C G38C A39U | 0.141 |
| G5C C6U G8C C9U U10C G38C A39C | 1.84 |
| G5C C6U G8C C9U U10C G13U A14U | 0.592 |
| G5C C6U G8C C9U U10C G13U A14G | 0.52 |
| G5C C6U G8C C9U U10C G13U A14C | 0.936 |
| G5C C6U G8C C9U U10C C44U A45U | 1.28 |
| G5C C6U G8C C9U U10C C44U A45G | 1.03 |

| Variant | exon inclusion enrichment index |
| --- | --- |
| G5C C6U G8C C9U U10C C44U A45C | 2.63 |
| G5C C6U G8C C9U U10C A47G G48A | 1.24 |
| G5C C6U G8C C9U U10C A47G G48U | 0.205 |
| G5C C6U G8C C9U U10C A47G G48C | 0.706 |
| G5C C6U G8C C9U U10C C36U A37U | 1.12 |
| G5C C6U G8C C9U U10C C36U A37G | 1.74 |
| G5C C6U G8C C9U U10C C36U A37C | 1.55 |
| G5C C6U G8C C9U U10C A25C G26A | 3.25 |
| G5C C6U G8C C9U U10C A25C G26U | 2.7 |
| G5C C6U G8C C9U U10C A25C G26C | 2.25 |
| G5C C6U G8C C9U U10C A45G | 3.56 |
| G5C C6U G8C C9U U10C A45C | 2.06 |
| G5C C6U G8C C9U U10C A45U | 2.45 |
| G5C C6U G8C C9U U10C A23G | 2.93 |
| G5C C6U G8C C9U U10C A23U | 1.39 |
| G5C C6U G8C C9U U10C C24A A25C | 3.4 |
| G5C C6U G8C C9U U10C C24A A25G | 2.06 |
| G5C C6U G8C C9U U10C C24A A25U | 1.94 |
| G5C C6U G8C C9U U10C A25C | 3.42 |
| G5C C6U G8C C9U U10C A25U | 2.6 |
| G5C C6U G8C C9U U10C A25G | 3.66 |
| G5C C6U G8C C9U U10C C36G | 1.32 |
| G5C C6U G8C C9U U10C C36U | 0.515 |
| G5C C6U G8C C9U U10C C36A | 1.44 |

| Variant | exon inclusion enrichment index |
| --- | --- |
| G5C C6U G8C C9U U10C C24G A25C | 3.27 |
| G5C C6U G8C C9U U10C C24G A25G | 0.981 |
| G5C C6U G8C C9U U10C C24G A25U | 2.32 |
| G5C C6U G8C C9U U10C G21U C22U | 0.512 |
| G5C C6U G8C C9U U10C G21U C22G | 1.74 |
| G5C C6U G8C C9U U10C G21U C22A | 0.661 |
| G5C C6U G8C C9U U10C A23U C24A | 0.79 |
| G5C C6U G8C C9U U10C A23U C24G | 2.38 |
| G5C C6U G8C C9U U10C A23U C24U | 0.198 |
| G5C C6U G8C C9U U10C G11C G12A | 0.634 |
| G5C C6U G8C C9U U10C G11C G12C | 0.631 |
| G5C C6U G8C C9U U10C G11C G12U | 0.675 |
| G5C C6U G8C C9U U10C A40U G41U | 0.94 |
| G5C C6U G8C C9U U10C A40U G41A | 0.0602 |
| G5C C6U G8C C9U U10C A40U G41C | 2.71 |
| G5C C6U G8C C9U U10C G33A G34U | 0.283 |
| G5C C6U G8C C9U U10C G33A G34A | 0.246 |
| G5C C6U G8C C9U U10C G33A G34C | 0.284 |
| G5C C6U G8C C9U U10C G13A A14U | 2.38 |
| G5C C6U G8C C9U U10C G13A A14C | 2.59 |
| G5C C6U G8C C9U U10C G13A A14G | 2.03 |
| G5C C6U G8C C9U U10C A30U A31G | 2.12 |
| G5C C6U G8C C9U U10C A30U A31C | 1.95 |
| G5C C6U G8C C9U U10C A30U A31U | 1.52 |

| Variant | exon inclusion enrichment index |
| --- | --- |
| G5C C6U G8C C9U U10C A45U G46A | 1.39 |
| G5C C6U G8C C9U U10C A45U G46C | 1.3 |
| G5C C6U G8C C9U U10C A45U G46U | 0.648 |
| G5C C6U G8C C9U U10C C19G | 1.61 |
| G5C C6U G8C C9U U10C C19A | 0.881 |
| G5C C6U G8C C9U U10C C19U | 0.105 |
| G5C C6U G8C C9U U10C C16U U17A | 1.65 |
| G5C C6U G8C C9U U10C C16U U17C | 1.08 |
| G5C C6U G8C C9U U10C C16U U17G | 0.905 |
| G5C C6U G8C C9U U10C G13A | 2.18 |
| G5C C6U G8C C9U U10C G13U | 0.0883 |
| G5C C6U G8C C9U U10C G13C | 0.822 |
| G5C C6U G8C C9U U10C G33U G34A | 0.262 |
| G5C C6U G8C C9U U10C G33U G34U | 0.282 |
| G5C C6U G8C C9U U10C G33U G34C | 0.547 |
| G5C C6U G8C C9U U10C C24G | 2.4 |
| G5C C6U G8C C9U U10C C24A | 1.72 |
| G5C C6U G8C C9U U10C C24U | 0.544 |
| G5C C6U G8C C9U U10C G15A C16G | 1.28 |
| G5C C6U G8C C9U U10C G15A C16U | 1.27 |
| G5C C6U G8C C9U U10C G15A C16A | 1.24 |
| G5C C6U G8C C9U U10C A45G G46U | 1.68 |
| G5C C6U G8C C9U U10C A45G G46A | 3.98 |
| G5C C6U G8C C9U U10C A45G G46C | 2.3 |

| Variant | exon inclusion enrichment index |
| --- | --- |
| G5C C6U G8C C9U U10C C44G | 2.79 |
| G5C C6U G8C C9U U10C C44U | 0.527 |
| G5C C6U G8C C9U U10C C44A | 3.29 |
| G5C C6U G8C C9U U10C A30C A31C | 2.9 |
| G5C C6U G8C C9U U10C A30C A31U | 2.1 |
| G5C C6U G8C C9U U10C A30C A31G | 3.01 |
| G5C C6U G8C C9U U10C A23C C24U | 0.867 |
| G5C C6U G8C C9U U10C A23C C24G | 3.11 |
| G5C C6U G8C C9U U10C A29C A30G | 3.25 |
| G5C C6U G8C C9U U10C A29C A30U | 1.18 |
| G5C C6U G8C C9U U10C A29C A30C | 2.52 |
| G5C C6U G8C C9U U10C A37U G38U | 0.446 |
| G5C C6U G8C C9U U10C A37U G38C | 1.03 |
| G5C C6U G8C C9U U10C A37U G38A | 0.713 |
| G5C C6U G8C C9U U10C A39C A40U | 1.13 |
| G5C C6U G8C C9U U10C A39C A40C | 2.43 |
| G5C C6U G8C C9U U10C A39C A40G | 2.03 |
| G5C C6U G8C C9U U10C A30G A31U | 0.63 |
| G5C C6U G8C C9U U10C A30G A31C | 0.276 |
| G5C C6U G8C C9U U10C A30G A31G | 0.469 |
| G5C C6U G8C C9U U10C A39U A40C | 2.16 |
| G5C C6U G8C C9U U10C A39U A40U | 0.67 |
| G5C C6U G8C C9U U10C A39U A40G | 0.572 |
| G5C C6U G8C C9U U10C C19A A20G | 0.213 |

| Variant | exon inclusion enrichment index |
| --- | --- |
| G5C C6U G8C C9U U10C C19A A20U | 0.553 |
| G5C C6U G8C C9U U10C C19A A20C | 0.813 |
| G5C C6U G8C C9U U10C G11A G12U | 0.314 |
| G5C C6U G8C C9U U10C G11A G12A | 0.685 |
| G5C C6U G8C C9U U10C G11A G12C | 0.41 |
| G5C C6U G8C C9U U10C G34U A35G | 0.537 |
| G5C C6U G8C C9U U10C G34U A35U | 0.377 |
| G5C C6U G8C C9U U10C G34U A35C | 0.683 |
| G5C C6U G8C C9U U10C A37G G38A | 1.79 |
| G5C C6U G8C C9U U10C A37G G38C | 2.08 |
| G5C C6U G8C C9U U10C A37G G38U | 0.627 |
| G5C C6U G8C C9U U10C A31C U32C | 3.49 |
| G5C C6U G8C C9U U10C A31C U32A | 1.46 |
| G5C C6U G8C C9U U10C A31C U32G | 2.49 |
| G5C C6U G8C C9U U10C C19U A20U | 0.25 |
| G5C C6U G8C C9U U10C C19U A20G | 0.343 |
| G5C C6U G8C C9U U10C C19U A20C | 0.957 |
| G5C C6U G8C C9U U10C G34A | 1.17 |
| G5C C6U G8C C9U U10C G34U | 0.391 |
| G5C C6U G8C C9U U10C G34C | 0.84 |
| G5C C6U G8C C9U U10C C16A | 2.53 |
| G5C C6U G8C C9U U10C C16G | 1.02 |
| G5C C6U G8C C9U U10C C16U | 2.36 |
| G5C C6U G8C C9U U10C G38U A39C | 1.39 |

| Variant | exon inclusion enrichment index |
| --- | --- |
| G5C C6U G8C C9U U10C G38U A39U | 0.0819 |
| G5C C6U G8C C9U U10C G38U A39G | 0.734 |
| G5C C6U G8C C9U U10C A45C G46C | 1.22 |
| G5C C6U G8C C9U U10C A45C G46U | 0.726 |
| G5C C6U G8C C9U U10C A45C G46A | 1.12 |
| G5C C6U G8C C9U U10C A40C | 2.94 |
| G5C C6U G8C C9U U10C A40G | 1.61 |
| G5C C6U G8C C9U U10C A40U | 1.67 |
| G5C C6U G8C C9U U10C G33C | 2.15 |
| G5C C6U G8C C9U U10C G33U | 0.658 |
| G5C C6U G8C C9U U10C G33A | 0.198 |
| G5C C6U G8C C9U U10C G26A | 2.49 |
| G5C C6U G8C C9U U10C G26C | 2.29 |
| G5C C6U G8C C9U U10C G26U | 2.06 |
| G5C C6U G8C C9U U10C G21U | 1.22 |
| G5C C6U G8C C9U U10C G21C | 1.57 |
| G5C C6U G8C C9U U10C G21A | 1.28 |
| G5C C6U G8C C9U U10C A37C G38U | 1.2 |
| G5C C6U G8C C9U U10C A37C G38C | 1.95 |
| G5C C6U G8C C9U U10C A37C G38A | 1.63 |
| G5C C6U G8C C9U U10C C44A A45C | 3.61 |
| G5C C6U G8C C9U U10C C44A A45G | 2.98 |
| G5C C6U G8C C9U U10C C44A A45U | 4.04 |
